As usually defined, the Kd is the free concentration of one partner at which half of the binding sites on the other are occupied at equilibrium, for simple one-to-one binding.

The values that follow come from PMC2148128.

Test [1] concerns the target Crn1p (coronin1p), full-length recombinant (amino acids 1–651) (S. cerevisiae) (UniProt Q06440). Nature of the test: co-sedimentation.
Test [2] has as its target taxol-stabilized bovine brain microtubules (tubulin) (bovine) (UniProt Q6B856). Nature of the test: co-sedimentation.

Consider “taxol-stabilized bovine brain microtubules (tubulin) (from UniProt Q6B856 1-445) (complex)”, for which, in test [1], the Kd came out at 2000 nM.

B1: Crn1p (coronin1p), full-length recombinant (amino acids 1–651) (natural protein)
chain: MSGKFVRASKYRHVFGQAAKKELQYEKLKVTNNAWDSNLLKTNGKFIAVNWNASGGGAFAVIPIEEVGKAPDQVPLFRGHTAQVLDTDFDPFNDHRIASGSDDSKIGIWDIPENYKFHDHVDEDGEPIDIKPVKFLTGHARKVGHVLYHPVAENVLASSSGDYTVKLWNVETGKDMITLKHPDMVTSMSFSYDGNYLATVARDKKLRVWNIREEKIVSEGPAHTGAKNQRVVWLGNSDRLATTGFSKLSDRQIGIWDAFNIEKGDLGGFYTVDQSSGILMPFYDEGNKILYLVGKGDGNIRYYEFQNDELFELSEFQSTEAQRGFAVAPKRMVNVKENEVLKGFKTVVDQRIEPVSFFVPRRSEEFQEDIYPDAPSNKPALTAEEWFSGKSVEGPILVSMRSIYDGSAPSFHEAKRPQQPTTQETALEEKKEQPKVEKPISESEKEVKQEAPKSPSPLKSASSSSTINHVLKEDNSINKLLKKSSDIDQVNNAEDPSRDTSGWEEADDEPAPIKIETPVTPTETKKDRTPKVEPSKELKPEPVSIATDRKQEQSLPQEEKSSEKTKSPEQEKSATPPSSITAAKTAITASSKEEPSAARTSPKSLGLKKSVEKLSTLVLQLEDVVDKLTKANLDKDERLLKLEQKIGELSK
As for B1, in test [2], the Kd was 15 to 20 µM, the percent of Crn1p bound at 2 μM microtubules was determined as 20% and the percent of Crn1p bound at 10 μM microtubules was 40%.
